{"source": "paper PMC10830117", "about": "(Science Advances, 2024)", "binders": {"B1": {"name": "Human LMPTP-A (low-molecular weight protein tyrosine phosphatase, isoform A) (enzyme, UniProt P24666 1-158, looked up)", "chain": "MAEQATKSVLFVCLGNICRSPIAEAVFRKLVTDQNISENWRVDSAATSGYEIGNPPDYRGQSCMKRHGIPMSHVARQITKEDFATFDYILCMDESNLRDLNRKSNQVKTCKAKIELLGSYDPQKQLIIEDPYYGNDSDFETVYQQCVRCCRAFLEKAH"}}, "biological_target": "T1, Glutathione synthetase (GSS), full-length wild type, recombinant (human, UniProt P48637 1-474)", "T1 sequence (looked up)": "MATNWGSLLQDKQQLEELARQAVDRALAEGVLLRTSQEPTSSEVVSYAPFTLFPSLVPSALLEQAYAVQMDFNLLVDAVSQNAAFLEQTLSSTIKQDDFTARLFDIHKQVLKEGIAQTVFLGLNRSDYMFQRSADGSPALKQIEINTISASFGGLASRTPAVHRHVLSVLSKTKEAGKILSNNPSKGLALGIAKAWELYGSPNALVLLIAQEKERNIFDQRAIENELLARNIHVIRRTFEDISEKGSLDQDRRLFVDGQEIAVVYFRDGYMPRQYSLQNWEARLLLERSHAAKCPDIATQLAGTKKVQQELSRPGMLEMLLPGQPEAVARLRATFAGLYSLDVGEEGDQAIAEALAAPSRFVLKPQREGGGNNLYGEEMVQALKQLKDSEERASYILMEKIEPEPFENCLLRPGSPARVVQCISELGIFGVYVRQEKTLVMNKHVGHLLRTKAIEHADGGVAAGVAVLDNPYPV", "assay": "SPR"}
{"binder": "B1", "values": [{"measurement": "Kd", "result": "244 ± 2", "unit": "nM"}, {"measurement": "stoichiometry N", "result": 1}]}
